Results: doi:10.1101/2020.05.01.072132, “Peroxisome counteracts oxidative stresses by suppressing catalase import via Pex14 phosphorylation” (bioRxiv, 2020)

Biological target: Pex5L, a longer isoform of Pex5 (Chinese hamster, ClPex5L) (Chinese hamster, UniProt Q920N5 1-640)
Assay: pull-down; GST-Pex14 variants (2 μg) on glutathione-Sepharose beads incubated with EGFP-PTS1 (4 μg) or HA-catalase (4 μg) in the presence of Pex5L (2 μg) 2 h at 4°C; 50 mM Tris-HCl pH 7.5, 0.15 M NaCl, 1% Triton X-100, 10% glycerol; immunoblot
Conditions: both partners purified

B1: HA-catalase (human, HA-HsCatalase) (enzyme)
chain: MADSRDPASDQMQHWKEQRAAQKADVLTTGAGNPVGDKLNVITVGPRGPLLVQDVVFTDEMAHFDRERIPERVVHAKGAGAFGYFEVTHDITKYSKAKVFEHIGKKTPIAVRFSTVAGESGSADTVRDPRGFAVKFYTEDGNWDLVGNNTPIFFIRDPILFPSFIHSQKRNPQTHLKDPDMVWDFWSLRPESLHQVSFLFSDRGIPDGHRHMNGYGSHTFKLVNANGEAVYCKFHYKTDQGIKNLSVEDAARLSQEDPDYGIRDLFNAIATGKYPSWTFYIQVMTFNQAETFPFNPFDLTKVWPHKDYPLIPVGKLVLNRNPVNYFAEVEQIAFDPSNMPPGIEASPDKMLQGRLFAYPDTHRHRLGPNYLHIPVNCPYRARVANYQRDGPMCMQDNQGGAPNYYPNSFGAPEQQPSALEHSIQYSGEVRRFNTANDDNVTQVRAFYVNVLNEEQRKRLCENIAGHLKDAQIFIQKKAVKNFTEVHPDYGSHIQALLDKYNAEKPKNAIHTFVQSGSHLAAREKANL
notes: catalase, human (HsCatalase), amplified from pUcD3/HA-HsCatalase (Otera and Fujiki, 2012) and cloned into pGEX6P-1; source: E. coli DH5α, purified as GST fusion with glutathione-Sepharose beads, isolated by cleaving with PreScission protease
binding result: binds
